Numbered stars: 1 amine (or outer) side, 2 acyl side, 3 side chain; on linkers, the order of the positions; unused ones are H or OH. Square brackets hold non-standard residues; d marks the D form. Side chains are listed from the residue outwards. Ends that are not written are not given here. * marks the point of attachment. C20 diacid = O=C(O)CCCCCCCCCCCCCCCCCCC(=O)*; γGlu = O=C(O)[C@H](CCC(=O)[*:2])N[*:1]; AEEA = NCCOCCOCC(=O)O; Aib = CC(C)(N)C(=O)O
Biological target: T1, human gastric inhibitory peptide receptor (hGIPR) (Homo sapiens, UniProt P48546)
T1 construct: expressed in transfected cells; host or cells: HEK293
T1 sequence (P48546 22-466): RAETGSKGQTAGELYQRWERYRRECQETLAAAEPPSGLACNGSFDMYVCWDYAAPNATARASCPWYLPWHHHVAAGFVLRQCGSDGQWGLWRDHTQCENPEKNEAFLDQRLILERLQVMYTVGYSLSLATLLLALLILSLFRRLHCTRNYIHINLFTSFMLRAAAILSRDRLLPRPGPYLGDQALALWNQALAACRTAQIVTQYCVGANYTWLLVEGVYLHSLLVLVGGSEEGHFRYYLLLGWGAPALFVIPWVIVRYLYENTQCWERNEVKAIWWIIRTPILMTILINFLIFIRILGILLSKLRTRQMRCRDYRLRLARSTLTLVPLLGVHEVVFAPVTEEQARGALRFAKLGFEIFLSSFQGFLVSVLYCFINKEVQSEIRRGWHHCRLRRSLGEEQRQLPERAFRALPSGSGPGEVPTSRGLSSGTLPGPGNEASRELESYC
Test: cAMP pharmacological functional assay in presence of 0.1% casein, hGIPR
Type: cell-based
Settings: ratio of hGIPR to hGLP1R cAMP EC50 ratios

Substance	[hGIPR/hGLP1R] EC50 Ratio
Y-Aib-EGTFTSDYSILLDKIAQ-Aib-AFIEYLIEGGPSSGAPPPK((2-[2-(2-Amino-ethoxy)-ethoxy]-acetyl)2-(γGlu)-CO—(CH2)18—CO2H)—NH2 (Y[Aib]EGTFTSDYSILLDKIAQ[Aib]AFIEYLIEGGPSSGAPPPK([AEEA-AEEA-γGlu-C20 diacid])-NH2; N-terminus assumed; SMILES CC[C@H](C)[C@H](NC(=O)[C@H](CCCCN)NC(=O)[C@H](CC(=O)O)NC(=O)[C@H](CC(C)C)NC(=O)[C@H](CC(C)C)NC(=O)[C@@H](NC(=O)[C@H](CO)NC(=O)[C@H](Cc1ccc(O)cc1)NC(=O)[C@H](CC(=O)O)NC(=O)[C@H](CO)NC(=O)[C@@H](NC(=O)[C@H](Cc1ccccc1)NC(=O)[C@@H](NC(=O)CNC(=O)[C@H](CCC(=O)O)NC(=O)C(C)(C)NC(=O)[C@@H](N)Cc1ccc(O)cc1)[C@@H](C)O)[C@@H](C)O)[C@@H](C)CC)C(=O)N[C@@H](C)C(=O)N[C@@H](CCC(N)=O)C(=O)NC(C)(C)C(=O)N[C@@H](C)C(=O)N[C@@H](Cc1ccccc1)C(=O)N[C@H](C(=O)N[C@@H](CCC(=O)O)C(=O)N[C@@H](Cc1ccc(O)cc1)C(=O)N[C@@H](CC(C)C)C(=O)N[C@H](C(=O)N[C@@H](CCC(=O)O)C(=O)NCC(=O)NCC(=O)N1CCC[C@H]1C(=O)N[C@@H](CO)C(=O)N[C@@H](CO)C(=O)NCC(=O)N[C@@H](C)C(=O)N1CCC[C@H]1C(=O)N1CCC[C@H]1C(=O)N1CCC[C@H]1C(=O)N[C@@H](CCCCNC(=O)COCCOCCNC(=O)COCCOCCNC(=O)CC[C@H](NC(=O)CCCCCCCCCCCCCCCCCCC(=O)O)C(=O)O)C(N)=O)[C@@H](C)CC)[C@@H](C)CC) [Peptide 48]	8.93
Y-Aib-EGTFTSDYSILLDKIAQ-Aib-AFIEYLIK((2-[2-(2-Amino-ethoxy)-ethoxy]-acetyl)2-(γGlu)-CO—(CH2)18—CO2H)GG-NH2 (Y[Aib]EGTFTSDYSILLDKIAQ[Aib]AFIEYLIK([AEEA-AEEA-γGlu-C20 diacid])GG-NH2; N-terminus assumed; SMILES CC[C@H](C)[C@H](NC(=O)[C@H](CCCCN)NC(=O)[C@H](CC(=O)O)NC(=O)[C@H](CC(C)C)NC(=O)[C@H](CC(C)C)NC(=O)[C@@H](NC(=O)[C@H](CO)NC(=O)[C@H](Cc1ccc(O)cc1)NC(=O)[C@H](CC(=O)O)NC(=O)[C@H](CO)NC(=O)[C@@H](NC(=O)[C@H](Cc1ccccc1)NC(=O)[C@@H](NC(=O)CNC(=O)[C@H](CCC(=O)O)NC(=O)C(C)(C)NC(=O)[C@@H](N)Cc1ccc(O)cc1)[C@@H](C)O)[C@@H](C)O)[C@@H](C)CC)C(=O)N[C@@H](C)C(=O)N[C@@H](CCC(N)=O)C(=O)NC(C)(C)C(=O)N[C@@H](C)C(=O)N[C@@H](Cc1ccccc1)C(=O)N[C@H](C(=O)N[C@@H](CCC(=O)O)C(=O)N[C@@H](Cc1ccc(O)cc1)C(=O)N[C@@H](CC(C)C)C(=O)N[C@H](C(=O)N[C@@H](CCCCNC(=O)COCCOCCNC(=O)COCCOCCNC(=O)CC[C@H](NC(=O)CCCCCCCCCCCCCCCCCCC(=O)O)C(=O)O)C(=O)NCC(=O)NCC(N)=O)[C@@H](C)CC)[C@@H](C)CC) [Peptide 73]	7.73
Y-Aib-EGTFTSDYSILLDKIAQ-Aib-AFIEYLIK((2-[2-(2-Amino-ethoxy)-ethoxy]-acetyl)2-(γGlu)-CO—(CH2)18—CO2H)GGPSSGAPPPS-NH2 (Y[Aib]EGTFTSDYSILLDKIAQ[Aib]AFIEYLIK([AEEA-AEEA-γGlu-C20 diacid])GGPSSGAPPPS-NH2; N-terminus assumed; SMILES CC[C@H](C)[C@H](NC(=O)[C@H](CCCCN)NC(=O)[C@H](CC(=O)O)NC(=O)[C@H](CC(C)C)NC(=O)[C@H](CC(C)C)NC(=O)[C@@H](NC(=O)[C@H](CO)NC(=O)[C@H](Cc1ccc(O)cc1)NC(=O)[C@H](CC(=O)O)NC(=O)[C@H](CO)NC(=O)[C@@H](NC(=O)[C@H](Cc1ccccc1)NC(=O)[C@@H](NC(=O)CNC(=O)[C@H](CCC(=O)O)NC(=O)C(C)(C)NC(=O)[C@@H](N)Cc1ccc(O)cc1)[C@@H](C)O)[C@@H](C)O)[C@@H](C)CC)C(=O)N[C@@H](C)C(=O)N[C@@H](CCC(N)=O)C(=O)NC(C)(C)C(=O)N[C@@H](C)C(=O)N[C@@H](Cc1ccccc1)C(=O)N[C@H](C(=O)N[C@@H](CCC(=O)O)C(=O)N[C@@H](Cc1ccc(O)cc1)C(=O)N[C@@H](CC(C)C)C(=O)N[C@H](C(=O)N[C@@H](CCCCNC(=O)COCCOCCNC(=O)COCCOCCNC(=O)CC[C@H](NC(=O)CCCCCCCCCCCCCCCCCCC(=O)O)C(=O)O)C(=O)NCC(=O)NCC(=O)N1CCC[C@H]1C(=O)N[C@@H](CO)C(=O)N[C@@H](CO)C(=O)NCC(=O)N[C@@H](C)C(=O)N1CCC[C@H]1C(=O)N1CCC[C@H]1C(=O)N1CCC[C@H]1C(=O)N[C@@H](CO)C(N)=O)[C@@H](C)CC)[C@@H](C)CC) [Peptide 37]	9.98
Y-Aib-EGTFTSDYSILLDKIAQ-Aib-AFIK((2-[2-(2-Amino-ethoxy)-ethoxy]-acetyl)2-(γGlu)-CO—(CH2)18—CO2H)YLIEGGPSSGAPPPS-NH2 (Y[Aib]EGTFTSDYSILLDKIAQ[Aib]AFIK([AEEA-AEEA-γGlu-C20 diacid])YLIEGGPSSGAPPPS-NH2; N-terminus assumed; SMILES CC[C@H](C)[C@H](NC(=O)[C@H](CCCCN)NC(=O)[C@H](CC(=O)O)NC(=O)[C@H](CC(C)C)NC(=O)[C@H](CC(C)C)NC(=O)[C@@H](NC(=O)[C@H](CO)NC(=O)[C@H](Cc1ccc(O)cc1)NC(=O)[C@H](CC(=O)O)NC(=O)[C@H](CO)NC(=O)[C@@H](NC(=O)[C@H](Cc1ccccc1)NC(=O)[C@@H](NC(=O)CNC(=O)[C@H](CCC(=O)O)NC(=O)C(C)(C)NC(=O)[C@@H](N)Cc1ccc(O)cc1)[C@@H](C)O)[C@@H](C)O)[C@@H](C)CC)C(=O)N[C@@H](C)C(=O)N[C@@H](CCC(N)=O)C(=O)NC(C)(C)C(=O)N[C@@H](C)C(=O)N[C@@H](Cc1ccccc1)C(=O)N[C@H](C(=O)N[C@@H](CCCCNC(=O)COCCOCCNC(=O)COCCOCCNC(=O)CC[C@H](NC(=O)CCCCCCCCCCCCCCCCCCC(=O)O)C(=O)O)C(=O)N[C@@H](Cc1ccc(O)cc1)C(=O)N[C@@H](CC(C)C)C(=O)N[C@H](C(=O)N[C@@H](CCC(=O)O)C(=O)NCC(=O)NCC(=O)N1CCC[C@H]1C(=O)N[C@@H](CO)C(=O)N[C@@H](CO)C(=O)NCC(=O)N[C@@H](C)C(=O)N1CCC[C@H]1C(=O)N1CCC[C@H]1C(=O)N1CCC[C@H]1C(=O)N[C@@H](CO)C(N)=O)[C@@H](C)CC)[C@@H](C)CC) [Peptide 34]	10.03
Y-Aib-EGTFTSDYSILLDKIAQ-Aib-AFK((2-[2-(2-Amino-ethoxy)-ethoxy]-acetyl)2-(γGlu)-CO—(CH2)18—CO2H)EYLIEGGPSSGAPPPS-NH2 (Y[Aib]EGTFTSDYSILLDKIAQ[Aib]AFK([AEEA-AEEA-γGlu-C20 diacid])EYLIEGGPSSGAPPPS-NH2) [Peptide 33]	8.67
Y-Aib-EGTFTSDYSILLDKIAQ-Aib-K((2-[2-(2-Amino-ethoxy)-ethoxy]-acetyl)2-(γGlu)-CO—(CH2)18—CO2H)FIEYLIEGGPSSGAPPPS-NH2 (Y[Aib]EGTFTSDYSILLDKIAQ[Aib]K([AEEA-AEEA-γGlu-C20 diacid])FIEYLIEGGPSSGAPPPS-NH2; N-terminus assumed; SMILES CC[C@H](C)[C@H](NC(=O)[C@H](CCCCN)NC(=O)[C@H](CC(=O)O)NC(=O)[C@H](CC(C)C)NC(=O)[C@H](CC(C)C)NC(=O)[C@@H](NC(=O)[C@H](CO)NC(=O)[C@H](Cc1ccc(O)cc1)NC(=O)[C@H](CC(=O)O)NC(=O)[C@H](CO)NC(=O)[C@@H](NC(=O)[C@H](Cc1ccccc1)NC(=O)[C@@H](NC(=O)CNC(=O)[C@H](CCC(=O)O)NC(=O)C(C)(C)NC(=O)[C@@H](N)Cc1ccc(O)cc1)[C@@H](C)O)[C@@H](C)O)[C@@H](C)CC)C(=O)N[C@@H](C)C(=O)N[C@@H](CCC(N)=O)C(=O)NC(C)(C)C(=O)N[C@@H](CCCCNC(=O)COCCOCCNC(=O)COCCOCCNC(=O)CC[C@H](NC(=O)CCCCCCCCCCCCCCCCCCC(=O)O)C(=O)O)C(=O)N[C@@H](Cc1ccccc1)C(=O)N[C@H](C(=O)N[C@@H](CCC(=O)O)C(=O)N[C@@H](Cc1ccc(O)cc1)C(=O)N[C@@H](CC(C)C)C(=O)N[C@H](C(=O)N[C@@H](CCC(=O)O)C(=O)NCC(=O)NCC(=O)N1CCC[C@H]1C(=O)N[C@@H](CO)C(=O)N[C@@H](CO)C(=O)NCC(=O)N[C@@H](C)C(=O)N1CCC[C@H]1C(=O)N1CCC[C@H]1C(=O)N1CCC[C@H]1C(=O)N[C@@H](CO)C(N)=O)[C@@H](C)CC)[C@@H](C)CC) [Peptide 32]	6.18
Y-Aib-EGTFTSDYSILLDKK((2-[2-(2-Amino-ethoxy)-ethoxy]-acetyl)2-(γGlu)-CO—(CH2)18—CO2H)AQ-Aib-AFI-(D-Glu)-YLIEGGPSSGAPPPS-NH2 (YXEGTFTSDYSILLDKKAQXAFIXYLIEGGPSSGAPPPS; Aib, D-Glu, lipidated Lys, C-terminal amide; (2)..(2) Xaa at position 2 is Aib; MOD_RES (17)..(17) Lys at position 17 is chemically modified by conjugation of the epsilon-amino group of the Lys side chain with (2-[2-(2-amino-ethoxy)-ethoxy]-acetyl)2-(gamma-Glu)-CO-(CH2)18- CO2H; (20)..(20) Xaa at position 20 is Aib; (24)..(24) Xaa at position 24 is D-Glu; MOD_RES (39)..(39) Ser at position 39 is amidated) [Peptide 84]	9.19
